According to US5688511, “Cellular protein TDP-43 and regulation of HIV-1 gene expression” (Board of Regents, The University of Texas System):

Columns and labels:
GST-TDP-43 (7-414) [1] = target: T1, GST-TDP-43 (7-414) (Homo sapiens, UniProt Q13148 SEQ:7-414); experiment: competition; up to 50x excess did not significantly compete; conditions: tags: N-terminal GST
[2] = target: T2, TDP-43 full length (thrombin-cleaved) (Homo sapiens, UniProt Q13148 SEQ:1-414); experiment: UV crosslinking; conditions: tags: GST removed by thrombin
GST-TDP-43 (7-414) [3] = target: T1, GST-TDP-43 (7-414); experiment: competition; up to 50x excess did not compete; conditions: tags: N-terminal GST
GST-TDP-43 (7-198) = GST-TDP-43 (7-198) (Homo sapiens, UniProt Q13148 SEQ:7-198); experiment: EMSA; part of RNP domain deleted; still bound; conditions: tags: N-terminal GST; label: 32P
GST-TDP-43 (7-240) = GST-TDP-43 (7-240) (Homo sapiens, UniProt Q13148 SEQ:7-240); experiment: EMSA; glycine-rich domain deleted; bound like wild type; conditions: tags: N-terminal GST; label: 32P
GST-TDP-43 (7-333) = GST-TDP-43 (7-333) (Homo sapiens, UniProt Q13148 SEQ:7-333); experiment: EMSA; glycine-rich domain truncation; bound like wild type; conditions: tags: N-terminal GST; label: 32P
[4] = target: T2, TDP-43 full length (thrombin-cleaved); experiment: UV crosslinking, 43 and 86 kDa species, 160 or 800 ng protein; conditions: tags: GST removed by thrombin; label: 32P
GST-TDP-43 (7-414) [5] = target: T1, GST-TDP-43 (7-414); experiment: EMSA; 50 mM KCl, 5 mM MgCl2, room temperature; competed by 5-50x unlabeled WT; conditions: tags: N-terminal GST; label: 32P
GST-TDP-43 (7-166) = GST-TDP-43 (7-166) (Homo sapiens, UniProt Q13148 SEQ:7-166); experiment: EMSA; only first RNP-1 retained; bound, affinity higher when both RNP1 and RNP2 present; conditions: tags: N-terminal GST; label: 32P
[6] = target: T2, TDP-43 full length (thrombin-cleaved); experiment: competition; 50x excess did not compete UV crosslinking; conditions: tags: GST removed by thrombin
GST-TDP-43 (7-414) [7] = target: T1, GST-TDP-43 (7-414); experiment: competition; up to 50x excess did not significantly compete; listed as -46/-13 in Example 8; conditions: tags: N-terminal GST

T1 sequence (Q13148 7-414): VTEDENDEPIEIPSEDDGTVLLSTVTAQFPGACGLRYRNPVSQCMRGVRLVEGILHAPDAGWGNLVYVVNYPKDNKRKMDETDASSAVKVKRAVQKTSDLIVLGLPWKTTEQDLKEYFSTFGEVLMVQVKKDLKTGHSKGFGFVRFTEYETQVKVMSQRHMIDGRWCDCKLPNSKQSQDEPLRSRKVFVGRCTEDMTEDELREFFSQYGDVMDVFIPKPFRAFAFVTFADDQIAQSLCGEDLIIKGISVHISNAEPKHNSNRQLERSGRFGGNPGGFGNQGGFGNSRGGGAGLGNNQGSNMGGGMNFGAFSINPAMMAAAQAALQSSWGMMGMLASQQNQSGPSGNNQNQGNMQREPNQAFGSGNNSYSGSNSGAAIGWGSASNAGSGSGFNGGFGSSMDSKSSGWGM
T2 sequence (Q13148 whole entry): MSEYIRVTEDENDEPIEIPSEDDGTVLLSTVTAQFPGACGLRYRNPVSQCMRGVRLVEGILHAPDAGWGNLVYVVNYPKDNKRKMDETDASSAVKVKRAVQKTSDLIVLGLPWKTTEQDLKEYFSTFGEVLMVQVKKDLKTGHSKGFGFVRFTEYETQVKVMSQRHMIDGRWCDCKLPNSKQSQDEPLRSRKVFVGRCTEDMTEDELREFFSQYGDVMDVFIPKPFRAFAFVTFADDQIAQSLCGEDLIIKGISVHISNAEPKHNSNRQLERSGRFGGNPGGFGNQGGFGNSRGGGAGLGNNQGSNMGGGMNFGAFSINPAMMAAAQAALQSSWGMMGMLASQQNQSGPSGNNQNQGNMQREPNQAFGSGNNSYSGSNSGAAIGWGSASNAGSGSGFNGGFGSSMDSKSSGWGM
Sequence of GST-TDP-43 (7-333) (Q13148 7-333): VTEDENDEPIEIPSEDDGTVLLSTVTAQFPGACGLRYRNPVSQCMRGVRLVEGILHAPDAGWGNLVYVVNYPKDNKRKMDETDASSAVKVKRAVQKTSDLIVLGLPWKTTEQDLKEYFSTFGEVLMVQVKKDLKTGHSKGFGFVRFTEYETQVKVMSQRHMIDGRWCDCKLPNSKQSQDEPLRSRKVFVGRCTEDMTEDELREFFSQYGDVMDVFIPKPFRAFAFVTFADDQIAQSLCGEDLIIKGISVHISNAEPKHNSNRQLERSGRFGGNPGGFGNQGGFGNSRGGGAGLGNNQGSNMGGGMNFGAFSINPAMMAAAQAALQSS
Sequence of GST-TDP-43 (7-198) (Q13148 7-198): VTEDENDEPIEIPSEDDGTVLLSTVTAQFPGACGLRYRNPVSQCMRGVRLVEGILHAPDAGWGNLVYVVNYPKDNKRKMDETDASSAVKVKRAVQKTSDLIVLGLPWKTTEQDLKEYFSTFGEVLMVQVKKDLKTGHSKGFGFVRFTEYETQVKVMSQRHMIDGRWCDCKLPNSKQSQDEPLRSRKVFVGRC
Sequence of GST-TDP-43 (7-166) (Q13148 7-166): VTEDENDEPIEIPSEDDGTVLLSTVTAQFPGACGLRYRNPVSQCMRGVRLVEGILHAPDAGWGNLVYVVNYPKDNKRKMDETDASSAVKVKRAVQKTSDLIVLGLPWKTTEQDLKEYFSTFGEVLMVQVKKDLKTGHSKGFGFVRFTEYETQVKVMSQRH
Sequence of GST-TDP-43 (7-240) (Q13148 7-240): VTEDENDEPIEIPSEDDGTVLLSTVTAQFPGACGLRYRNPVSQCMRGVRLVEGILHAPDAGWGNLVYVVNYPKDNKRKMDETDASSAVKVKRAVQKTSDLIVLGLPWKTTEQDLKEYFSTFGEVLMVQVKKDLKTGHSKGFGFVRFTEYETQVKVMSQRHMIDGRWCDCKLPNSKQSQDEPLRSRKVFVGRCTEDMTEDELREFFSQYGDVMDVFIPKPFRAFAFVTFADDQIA

B1: HIV-1 LTR +10/+50 (dsDNA)
DNA 1: GGTTAGACCAGATCTGAGCCTGGGAGCTCTCTGGCTAACTAG
DNA 2: CTAGTTAGCCAGAGAGCTCCCAGGCTCAGATCTGGTCTAACC
binding result (GST-TDP-43 (7-414) [1]): no binding

B2: HIV-1 LTR -18/+28 delta2 (dsDNA)
DNA 1: CTGCTTTTTGCCTGTACGTACATGCGTACGTTAGACCAGATCT
DNA 2: AGATCTGGTCTAACGTACGCATGTACGTACAGGCAAAAAGCAG
binding result [2]: no binding
binding result (GST-TDP-43 (7-414) [3]): no binding

B3: HIV-1 LTR -18/+28 (TAR DNA) WT (dsDNA)
DNA 1: CTGCTTTTTGCCTGTACTGGGTCTCTCTGGTTAGACCAGATCTGAG
DNA 2: CTCAGATCTGGTCTAACCAGAGAGACCCAGTACAGGCAAAAAGCAG
binding result (GST-TDP-43 (7-198)): binds
binding result (GST-TDP-43 (7-240)): binds
binding result (GST-TDP-43 (7-333)): binds
binding result [4]: binds
binding result (GST-TDP-43 (7-414) [5]): binds
binding result (GST-TDP-43 (7-166)): binds

B4: HIV-1 LTR -45/+1 (dsDNA)
DNA 1: GCGTGCCTCAGATGCTGCATATAAGCAGCAGCTGCTTTTTGCCTGTACT
DNA 2: AGTACAGGCAAAAAGCAGCTGCTGCTTATATGCAGCATCTGAGGCACGC
binding result (GST-TDP-43 (7-414) [1]): no binding

B5: HIV-1 LTR -18/+28 delta1+delta2 (dsDNA)
DNA 1: CTGACGTACGTACGTACGTACATGCGTACGTTACGGACCATCT
DNA 2: AGATGGTCCGTAACGTACGCATGTACGTACGTACGTACGTCAG
binding result (GST-TDP-43 (7-414) [3]): no binding
binding result [6]: no binding

B6: AdMLP TATA (dsDNA)
DNA 1: AAGGGGGGCTATAAAAGGGGGTGGGGG
DNA 2: CCCCCACCCCCTTTTATAGCCCCCCTT
binding result (GST-TDP-43 (7-414) [3]): no binding

B7: HIV-1 LTR -45/-13 (dsDNA)
DNA 1: GCGTGCCTCAGATGCTGCATATAAGCAGCTGCTTT
DNA 2: AAAGCAGCTGCTTATATGCAGCATCTGAGGCACGC
binding result (GST-TDP-43 (7-414) [7]): no binding

B8: HIV-1 LTR -18/+28 delta1 (dsDNA)
DNA 1: CTGACGTACGTACGTACTGGGTCTCTCTGGTTAGACCAGATCT
DNA 2: AGATCTGGTCTAACCAGAGAGACCCAGTACGTACGTACGTCAG
binding result [2]: no binding
binding result (GST-TDP-43 (7-414) [3]): no binding
